This assay concerns the target VP2 capsid protein of Epizootic hemorrhagic disease virus serotype 8, wild type (Epizootic hemorrhagic disease virus serotype 8 (EHDV-8)) (UniProt Q00273). The experiment in a line: SEC; FPLC-SEC on Superose 6 16/300 in PBS 1X pH 7.4, calibrated with the gel filtration HMW calibration kit; oligomeric state from retention time. (In general: In gel filtration, larger molecules generally elute earlier.)

Broadly, the stoichiometry N is a count of units in the complex or per binding partner.

“VP2 capsid protein of Epizootic hemorrhagic disease virus serotype 8, wild type (from UniProt Q00273 1-971) (natural protein)”: the stoichiometry N amounted to 3.

These data come from article PMC12846072.
